Test results taken from paper PMC10728100, “Structural and biochemical investigations of a HEAT-repeat protein involved in the cytosolic iron-sulfur cluster assembly pathway” (Communications Biology, 2023).
Where a chain is given by its changes, count along the chain named. Several values for one entry are separate records, joined by “and”; a condition that tells them apart may be missing. Equal values may be shown once.

T1: SUMO-tagged ScMet18 I973A (S. cerevisiae, UniProt P40469 1-1032, I973A)
T1 construct: Met18, S. cerevisiae; substitution in HEAT-repeat 22; source: E. coli Rosetta2(DE3), purified (Ni-NTA, gel filtration); not shown: His, N-terminal, kept; SUMO, N-terminal, kept
T1 sequence: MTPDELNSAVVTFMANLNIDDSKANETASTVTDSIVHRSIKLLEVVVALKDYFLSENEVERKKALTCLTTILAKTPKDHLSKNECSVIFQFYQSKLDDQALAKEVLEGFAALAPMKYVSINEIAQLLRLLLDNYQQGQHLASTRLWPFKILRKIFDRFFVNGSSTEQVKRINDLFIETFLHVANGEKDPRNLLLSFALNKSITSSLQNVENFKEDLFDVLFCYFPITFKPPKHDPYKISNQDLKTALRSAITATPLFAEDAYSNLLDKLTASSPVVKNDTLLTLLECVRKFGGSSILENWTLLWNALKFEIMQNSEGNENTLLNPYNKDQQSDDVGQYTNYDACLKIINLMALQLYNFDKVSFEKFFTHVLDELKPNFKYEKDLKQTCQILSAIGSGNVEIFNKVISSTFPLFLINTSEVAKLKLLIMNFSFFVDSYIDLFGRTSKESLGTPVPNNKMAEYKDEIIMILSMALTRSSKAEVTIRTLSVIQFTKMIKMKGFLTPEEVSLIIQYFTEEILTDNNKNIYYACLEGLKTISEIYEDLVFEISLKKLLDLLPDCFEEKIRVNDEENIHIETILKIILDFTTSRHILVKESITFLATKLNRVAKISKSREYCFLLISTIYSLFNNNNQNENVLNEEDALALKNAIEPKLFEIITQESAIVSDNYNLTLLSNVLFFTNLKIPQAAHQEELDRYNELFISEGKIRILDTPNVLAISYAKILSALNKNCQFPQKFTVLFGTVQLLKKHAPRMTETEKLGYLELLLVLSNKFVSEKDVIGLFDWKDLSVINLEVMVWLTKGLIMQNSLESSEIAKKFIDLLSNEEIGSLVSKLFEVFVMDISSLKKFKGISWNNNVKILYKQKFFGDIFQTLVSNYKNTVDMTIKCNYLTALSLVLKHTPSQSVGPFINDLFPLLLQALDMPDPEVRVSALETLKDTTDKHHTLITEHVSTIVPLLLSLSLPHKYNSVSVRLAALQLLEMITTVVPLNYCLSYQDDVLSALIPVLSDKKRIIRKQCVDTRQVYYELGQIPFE

B1: ScLeu1 with N-terminal His tag (natural protein, S. cerevisiae, UniProt P07264 1-779, looked up)
chain: MVYTPSKGPRTLYDKVFDAHVVHQDENGSFLLYIDRHLVHEVTSPQAFEGLENAGRKVRRVDCTLATVDHNIPTESRKNFKSLDTFIKQTDSRLQVKTLENNVKQFGVPYFGMSDARQGIVHTIGPEEGFTLPGTTVVCGDSHTSTHGAFGSLAFGIGTSEVEHVLATQTIIQAKSKNMRITVNGKLSPGITSKDLILYIIGLIGTAGGTGCVIEFAGEAIEALSMEARMSMCNMAIEAGARAGMIKPDETTFQYTKGRPLAPKGAEWEKAVAYWKTLKTDEGAKFDHEINIEAVDVIPTITWGTSPQDALPITGSVPDPKNVTDPIKKSGMERALAYMGLEPNTPLKSIKVDKVFIGSCTNGRIEDLRSAAAVVRGQKLASNIKLAMVVPGSGLVKKQAEAEGLDKIFQEAGFEWREAGCSICLGMNPDILDAYERCASTSNRNFEGRQGALSRTHLMSPAMAAAAGIAGHFVDIREFEYKDQDQSSPKVEVTSEDEKELESAAYDHAEPVQPEDAPQDIANDELKDIPVKSDDTPAKPSSSGMKPFLTLEGISAPLDKANVDTDAIIPKQFLKTIKRTGLKKGLFYEWRFRKDDQGKDQETDFVLNVEPWREAEILVVTGDNFGCGSSREHAPWALKDFGIKSIIAPSYGDIFYNNSFKNGLLPIRLDQQIIIDKLIPIANKGGKLCVDLPNQKILDSDGNVLVDHFEIEPFRKHCLVNGLDDIGITLQKEEYISRYEALRREKYSFLEGGSKLLKFDNVPKRKAVTTTFDKVHQDW
notes: Leu1, isopropylmalate isomerase, S. cerevisiae; also called HisLeu1; source: purified
B2: untagged ScMet18 (S. cerevisiae Met18, His-SUMO tag removed by SUMO protease) (natural protein)
chain: T1 sequence with A973I
notes: Met18 (MMS19 in humans), S. cerevisiae; Met18 gene amplified from genomic DNA; 118 kDa; model holds residues 9-225, 242-314 and 338-1029; Mixture of monomers, dimers, tetramers and hexamers in solution; hexamer and tetramer by cryo-EM; also called SUMO-cleaved ScMet18; source: E. coli Rosetta2(DE3), purified (Ni-NTA, gel filtration; tag cut with SUMO protease, Ni-NTA flow through); not shown: …
B3: SUMO-tagged ScMet18, wild type (N-terminal His-tag followed by SUMO solubility tag) (natural protein, S. cerevisiae)
chain: T1 sequence with A973I
notes: Met18, S. cerevisiae; Met18 gene amplified from genomic DNA; 131 kDa with the tag; also called SUMOMet18; SUMOScMet18; source: E. coli Rosetta2(DE3), purified (Ni-NTA, gel filtration); not shown: His, N-terminal, kept; SUMO, N-terminal, kept

What was measured:
[1] = biological target: T1, SUMO-tagged ScMet18 I973A; test: pull-down; as the ScCia2 bait pull-down, but ScLeu1 and ScCia1 included in addition to the SUMO-tagged ScMet18 variant and the strep-tagged ScCia2 bait; Strep-Tactin XT resin; SDS-PAGE; conditions: both partners purified
[2] = biological target: B3; test: as above; conditions: both partners purified
[3] = biological target: the molecule itself; test: cryo-EM structure; chameleon-prepared grids; untagged ScMet18 at 2 µg/µL (15 µM) in 50 mM Tris pH 8.0, 100 mM NaCl, 1% glycerol, 1 mM BME; 24 °C
[4] = biological target: the molecule itself; test: mass photometry; ScMet18 alone (SUMO-tagged or untagged) at 0.050 µM in 50 mM Tris pH 8.0, 100 mM NaCl, 1% glycerol, 5 mM BME
[5] = biological target: the molecule itself; test: cryo-EM structure; Vitrobot-plunged grids; untagged ScMet18 at 1.2 mg/mL (9 µM) in 50 mM HEPES pH 7.5, 100 mM NaCl, 1% glycerol, 1 mM BME, 33 mM sodium acetate; 10 °C; D3 symmetry

| binding result [1] | binding result [2] | Binder | stoichiometry N [3] | stoichiometry N [4] | stoichiometry N [5] |
| --- | --- | --- | --- | --- | --- |
| binds | binds | B1 |  |  |  |
|  |  | B2 | 6 and 4 | 2 | 6 |
|  |  | B3 |  | 2 and 4 and 6 |  |
